The values that follow come from the DeepSol protein solubility set.

The nature of the data set: soluble on expression in E. coli; label from the status in PepcDB or PDB records.
In the case of “MSLKNVLITGANSYIGLSFKNWLAKEPEKYKVDSISLRGDLWKEKDFSQYDVLLHAAGIAHIKETKENKELYFKVNRDVAYEAAKKAKDEGIKQFIFLSSMSVYGKENGIIDLDTLPKPTSNYGESKLQAEKLIEMLDDDSFKVVTIRPPMIYGKGCKGNYPKLAKLARKLPVFPDVENERSMIHIENLCEFMKLIIDNNDAGLFLPQNDDFVKTSEMVRLIGETNGKRIKLTKFFNPVLNLFIGKIGVVNKVFGNLKYKKEISNYKDNYIINNFAESIRRTEEGHHHHHH”, the “soluble on expression in E. coli” value is reported as “soluble”.

As to “MSLKPEEIVEGLLSGNRRALARAITYVENEYPESKEIMRQIFAKTGRAHVVGLTGFPGVGKSTLVSKLTEEFRRRGKKVGIIAIDPGSPFTGGALLGDRLRLDGMDSRKQLWTDPGIFFRSMSSRGRAGGLAAKTGDVVRLLDAFGFDVILVETVGAGQSEVDIIEVADTSVVVMMPETGDEIQVNKAGILEIGDIYVVNKADLGGAEKVERWLRYMLSLDEESVQMLSQMTHADEARVQSGEFFERRKGWNPPVIKTVADRGEGIKELADAIEEHFDYMKKTGLIEKRRRERVKRELFEIVMNDVIKLVKEKTNYRDLLVKLLKGETDPYTAAEQIVEEVIHNAGKGEGHHHHHH”, the “soluble on expression in E. coli” value is “soluble”.

In the case of “MSLKPIFGRGPSLQLRLFFAVMLSASLMLADSRLGAFSHVRFLLNSLVAPIQYAADLPRVLFDDFYDSISSHQQLRENNQLLKREVLTLKSNLLLLEQYKEENQRLRKLLGSSFLRDEKKVVTEVMAVDTSPYRHQVVIDKGRVDGVYEGQPIINEKGIVGQVTFVAAHNSRVLLLIDPNTAIPVQNIRNDIRVIASGNGQTDQIQLEHIPTSTDIEVGDMLVTSGLGGVYPEGYPVAIVSQVDKDTRREFASIKADPVVEFDRLRYLLLIWPNEDRLQKVMQADPQVLLEEEANAQEGHHHHHH”, the “soluble on expression in E. coli” value is recorded as “soluble”.

For the sequence “MSLKSGTMVEKLASAKTIAFDKTGTITQGQLSVDQVQPINAGITAAELVGLAASVEQESSHILARSIVAYARKQDVPLKNITDLAEVSGAGVKAFVDGAEIRVGKKNFVTQESQETEKIDKTTIHISRNGTYLGRITFTDTVRPEAKETMEKLHQLHLQRILMLTGDQESVAETIAAEVGITEVHGECLPQDKLTILKELPKENHPVIMVGDGVNDAPSLAAADVGIAMGAHGATAASETADVVILKDDLSKVSQAVEIAQDTMKIAKEGHHHHHH”, the “soluble on expression in E. coli” value is “soluble”.

Take “MSLKSHRYMEVSFTKYRINLKYSFGISRSSNNYYDVAFVFIKDKGIIGRGEAAPSKRYGESIDYIIKLLESGISLPKNSYDKESVWKHVKPQLGGIKSLEAAFNMAIWDWWGQKQKKPVYELLNIKVNNLPKTSFTIAIGNMNEIERKIEEAKPYSILKVKLGTPKNDKKIITEIRKLTDKLIRVDANEGWDLDMAIKMSKWLADRNVEFIEQPFPASKIDQTSILKKKSPLDIFADENSINSNDIPSLEGVFDGINIKLMKCGSIEEGYKMIKLAREFDLKIMLGCMVESSIEGHHHHHH”: the “soluble on expression in E. coli” value is “soluble”.

As for “MSLKSPPKKDEENVKINNMFKCGFYSFKGNRTYNEDRVIIIEDMNNFLKENIINNIKDMETPSYIYCAIYDGHNGDNAVNIVQKLLHIHMYYYFINGNGLENSLKYSFQEIDNYLCKNIINIKEENHSNYSSGTTACVSVIFKNMLYVANIGDSRCIISKNGRAIVLTVDHRASINKKEQDRILKSGGILDDEGYLGGCLGVCRGFGSFHKKTKEKLKGLICEPDLFHIKLTDDDEFLIICCDGIFDVITSQEAVNTVKNSLIQSRDAKTAAEALCQLAYKKKSLDNLSVLVVIFQNPDKEGHHHHHH”, the “soluble on expression in E. coli” value is “soluble”.

“MSLKSSEQMRALFPDHPEACDNTLLLTEMIGSYDEVFKYVDRMPQFDVPEGETQESWLRKKLQEGLDEKFGPNPPKEVLERLETELSVIEPLGFASYFLVVSDICNAARSMGVPVGPGRGSAAGSLVAYLTGIIAINPLEHGLLFERFLNPERVNPPDIDLDFDDRQRDKVIDYVTHKYGAEYTSQVNTFGKIKAKAAVKDANRILGYPFALGDKITKAMPPDVMGKGVPLDKIFDSSHERYGEGQEFRQLVADNPDVAKVVETAKGLEGLIRGTGVHACAFILSSTPLLDLVPMHKRDKDGMIIAGFAYPQLEEMGLMKMDFLGLRNLGIMDHCIKIIKANRGIDVDLKNIALDDKTTYEMLARGDTLGVFQLDGTAMRSLLRLMGPTCFDDIVAVLALYRPGPMGANAHISYAQRKNNREPIIPIHPELKEDLDEILAPTYHLIVYQEQIMSIARKLAGYTLGGADLLRRAMGKEGHHHHHH”: the “soluble on expression in E. coli” value is “soluble”.

In the case of “MSLKSWVKMNSWTSEDTKAVKMWFDLDKYREFENISINMLYHEIWARTYFFKPVIEEGMQKTVLKNYMQILDGDPFLIKEKHLNYMDSENKSYQPPYFFITTVDRIANISFACMRKALFIRANTEQYKIDSTIENEYISEIIPEQFPTTIMLEIDLAGGSDDEIAEALRVSLPQWRKVKGVKPAPLDAVRFGYGAIKKLISYRIIPMLDLLAWSERKKVLLSDDRLSRLLYTDEDDDKAIRQGYHIRDADRPFAMKTVETDFLRQFNFFINKNQHVKEMRVSDVMKLSDSEGHHHHHH”, the “soluble on expression in E. coli” value was “not soluble”.

On to “MSLKTITTFENKKVLVLGLARSGEAAARLLAKLGAIVTVNDGKPFDENPTAQSLLEEGIKVVCGSHPLELLDEDFCYMIKNPGIPYNNPMVKKALEKQIPVLTEVELAYLVSESQLIGITGSNGKTTTTTMIAEVLNAGGQRGLLAGNIGFPASEVVQAANDKDTLVMELSSFQLMGVKEFRPHIAVITNLMPTHLDYHGSFEDYVAAKWNIQNQMSSSDFLVLNFNQGISKELAKTTKATIVPFSTTEKVDGAYVQDKQLFYKGENIMSVDDIGVPGSHNVENALATIAVAKLAGISNQVIRETLSNFGGVKHRLQSLGKVHGISFYNDSKSTNILATQKALSGFDNTKVILIAGGLDRGNEFDELIPDITGLKHMVVLGESASRVKRAAQKAGVTYSDALDVRDAVHKAYEVAQQGDVILLSPANASWDMYKNFEVRGDEFIDTFESLRGEGHHHHHH”, for which the “soluble on expression in E. coli” value was “soluble”.

Consider “MSLKTMSDTSEIIFSNYGIYDLGDNLELLLPNTLIKFQRISDNAFSYFRENSEGQIIEKIIPVKSNDIKIELAPIRPLNHPAKRTNYVFLKLDKEIHLGENSAASIFVHCPIEIGIFLIYGDNHEPLDWITCNPLNSRFSLYGSPDTGTLCKYAEVSLATDYNDSVSYVNGVMHIVIENTLSFAQTISKVIFPITDNNLYYKDSKSIVDGIKIIMKKRAAVNIAEIKPTLVDTEWTQAPAWDNSIDSVHHMEMTLEEGHHHHHH”, for which the “soluble on expression in E. coli” value is recorded as “soluble”.

As to “MSLKVGERHYHTIWLNEDGRSVDIIDQRWLPHEFRVVTLKTVADVADAIRDMWVRGAPLIGVTAAYGVAIAMAKDPSDAHLDAVWEELNETRPTAINLRWALNAMREYLRPLPEAERADAAYKRAAEIAEEDVELNRAIGANGLDVIREIASKKKPGEPVRILTHCNAGWLATVDYGTATAPIYMAVEEGIPVHVYVDETRPRNQGAYLTAWEMNGHGVPHTLIVDNAGGHLMQHGDIDMVIVGTDRTTANGDVCNKIGTYLKALAARDNDVPFYVALPSPTIDWTVQDGVKEIPIEERTADEVSFVQGRAADGSIASVRISPEGSPAANPAFDVTPARLITGLITERGIATPSPEGLKALFPERSEGHHHHHH”, the “soluble on expression in E. coli” value is “soluble”.

For the sequence “MSLKVIWTVTPVGYQRIAKRCPSCSVKRDFTPSGAFRVNSQKKVLDVWSIYKCTHCDYTWNISLFSRLPVSKINRDLYCRLMANDAATVQYFAYDNAILKRNNAELSGQPDFHIQERWLVSIASHKQVSVSVRISRSFQVSLLSILKKQLLLSAAEIKRRIETGQISGVTMKMLKSRKLKNAKYDLQLSVETLYDRRRIVLTCREGHHHHHH”, the “soluble on expression in E. coli” value was “soluble”.

In the case of “MSLKYAWIDEQCRHYPLSALCEVLAVSINGYRAWKRGGTVQRKRLTDAQLLTLIRTIHAEVKGAYGSPRMTEEIRARGFPASKARVERLMSKNGIRARHKRRYRVTTDSKHKLPVAPNLLNRDFTPDAPNQVFSSDITYIWTDEGWLYLAVVLDLFNREVVGWSIKPRMTADLVTDALMMAWFRRKPAPGALHHSDRGSQYASHEFQRKLADYGMHCSMSRKGNCWDNAPTESFFNSLKNERVHATHYRTHREAAADLFEYIEVFYSRSRRHSSLGFVPPTQFLQDWLTAQQVKDAVAEGHHHHHH”, the “soluble on expression in E. coli” value was “not soluble”.

For “MSLKYSSTTADYLQWSEAMNLIRKLARDSNYKMSLLIALGCFTGLRISDILALRWNQILDAEEFTIIEIKTGKQRTIRINMQLQQHIRDCYEHINPVGINAPVLISQKGTVYTVQRINVMLKEIKKKYKLQIGNFSCHSLRKTFGRQVYNMNSDNSELALVKLMELFNHSSVSITKRYLGLRQEELLNTYDCLSF”, the “soluble on expression in E. coli” value is recorded as “not soluble”.

Take “MSLLFYRPLASIQALTFDLDDTLYDNRPVIKQVEEKVTEWLLSEHPITATRPLAWWLAMKRDIARRFPEQCHDVSQWRYLQVQHGLLELGYAQPEAEQAASETLEQVMRWRNQVDVPAETHRVLAQLAAKVPLIAITNGNVQIEKIGLSGYFQTVLRAGPDGRAKPYPDLFAQAAQQLQLEPRSILHVGDHLQTDVLGARQNGFQACWFNDQGQSIRRLAKASVLPDVEIERLSELLLIVNEGHHHHHH”: the “soluble on expression in E. coli” value is listed as “soluble”.

Turning to “MSLLGGPGIELFRRLVEEYEREHDVPMADIAAALAVQCRGGEAFLMAPDPPLSRRNRDQRRDRPQRPKRRPDLTTYRVAVGKRHKIGPGAIVGAIANEGGLHRSDFGQIRIGPDFSLVELPAKLPRATLKKLAQTRISGVLIDLRPYRPPDAARRHNGGKPRRKHVGEGHHHHHH”, the “soluble on expression in E. coli” value was “soluble”.

On to “MSLLLEILDLSRSTYYYQVKRLAQGDKDIELKHVIREIYDEHKGNYGYRRIHMELRNRGFVVNHKKVQRLMKVMGLAARIRRKRKYSSYKGEVGKKADNLIKRHFEGSKPYEKCYTDVTEFALPEGKLYLSPVFDSYNCEIIDFTLSRSPNLKQAQTMLEKTFPADSYSGTILHSDQGWQYQHQSYHDFLESKGILPSMSRKGNSPDNGMMDSFFGILKSEMFYGLETTYQSLDKLEEAITDYIFYYNNKRIKAKLKGLSPVQYRTKSFQEGHHHHHH”, for which the “soluble on expression in E. coli” value is “not soluble”.

Turning to “MSLLLFEQPVDLEKNNEDDTNIKPFAISRHFLLKLLLCGIILIELLLYSKCPKPIDNGPRTIANRSNTYFNGTHDFKTLTILISIDGFHPRLIDAKYTPFLYNLHNLRSPYDMNITTAPYMIPSFPTQTFPNHWSMVTGKYPIEHGIVSNIFWDNFTSSEFRPNNLDARIWSNTADPIWQLLQTESQGEYKVATHMWPGSEVVYEDHGDVPRERMPFYFGKFNQWEKLQDKLAQIFRYIDMPQLKDRPELVISYIPNVDSYGHSFGYDLRDKRLQKLIGEVDGFFLDLIEGLQKRNLLKISNVMIVSDHGMSNVNANDGEHVVVWERVFPADAMSAFISHLYNEGPMMMVCLKNPRDKQWICDLIEAQLEKAYGDEISRKFHVILKEDFDPSWKYFQYDNRKHRYDDRVGDIWILADEYYAIVKEMGDVPIGIMGTHGYNFNNCSDMASIFIGMGPMFNNEVVPPFENIEVYNMLIKASALLGEEKTKKEKSLLQEGHHHHHH”, the “soluble on expression in E. coli” value is “not soluble”.

For “MSLLLIGNGRLITRDAQNHFFENGCVAIDGQVVKQVGTTEELKQAYPEATFIDAKGGVIMPGFINMHNHIYSTFARGLSLTNYHPKNFMDILVDQWWRIDRALTLEDTYQSGKVAYLDSIRNGVTTVFDHHASYGEITGSLTQLSNAADELGIRTCLCYEVSDRDGEQKMREAVQENAAFIKASSLRNDDMQKAMMGMHAAFTLSDASLELCAANTPDGIGYHIHIAEDLADVHDSLKKYGKPIVNRLFDLGILGKQTMAGHCIHIGPHEMELLRDTDTMVVTNPESNMGNAVGCPPAMRMFNEYGILMGLGTDGYTNDVTESYKVGNVIHKHHLADPNAAWAEIPTMLFDNNPQMANRYFKTKLGVLEPNAAADVIIVDYHGPTPMTKENYNMHILFGMNGGMVTDTVINGEIRMRNREVQGIDEEKVWHDAQTQAQSFWKRVNQEGHHHHHH”, the “soluble on expression in E. coli” value is “soluble”.
